US20020155577A1 (AVENTIS PHARMA S A, published 2002)

Molecular target: T1, PAP1 (Parkin Associated Protein 1) fragment encoded by the insert of library plasmid pGAD-Ly111b, fused to … (human, UniProt Q4VX76 267-610)
T1 construct: Prey of the yeast two-hybrid test; It is a partial PAP1 clone from a human peripheral lymphocyte cDNA library; Any linker between GAL4 and the insert is not described; also called fragment of PAP1; plasmid isolated during the screening of the two-hybrid library
T1 sequence: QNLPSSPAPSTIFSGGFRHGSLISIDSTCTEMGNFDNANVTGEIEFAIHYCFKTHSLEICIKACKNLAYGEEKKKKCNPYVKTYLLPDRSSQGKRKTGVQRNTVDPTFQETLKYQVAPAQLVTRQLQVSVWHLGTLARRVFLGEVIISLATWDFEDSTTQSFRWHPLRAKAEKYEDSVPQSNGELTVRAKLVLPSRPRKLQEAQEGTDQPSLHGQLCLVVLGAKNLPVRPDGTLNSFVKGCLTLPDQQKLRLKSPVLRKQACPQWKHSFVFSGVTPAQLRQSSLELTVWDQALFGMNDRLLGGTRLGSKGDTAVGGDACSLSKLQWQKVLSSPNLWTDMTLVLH
Assay: yeast two-hybrid in strain L40, beta-Gal activity assay
Procedure: A sheet of nitrocellulose is preplaced on the Petri dish containing the yeast clones, which are separated from each other. This sheet is then immersed in liquid nitrogen for 30 seconds, in order to rupture the yeasts and thus to release the β-galactosidase activity. After thawing, the sheet of nitrocellulose is placed, colonies facing upwards, in another Petri dish containing a Whatman paper which has been presoaked in 1.5 ml of PBS solution (60 mM Na₂HPO₄, 40 mM NaH₂PO₄, 10 mM KCl, 1 mM MgSO₄, pH 7) containing 15 μl of X-Gal (5-bromo-4-chloro-3-indoyl-β-D-galactoside) at 40 mg/ml of N,N-dimethylformamide. The dish is then placed in an incubator at 37° C. The assay is termed positive when the colonies on the membrane turn blue after 12 hours.
To determine the specificity of interaction between the fragment corresponding to the PAP1 protein and the central region of parkin, a two-hybrid test for specific interaction with other nonrelevant proteins was carried out. To carry out this test, we transformed strain L40 with the control plasmids plex9-cAPP or pLex9-HaRasVal12, in place of the plasmid pLex9-parkin (135-290), which respectively encode the cytoplasmic domain of the APP or the HaRasVal12 protein, which are fused to the LexA DNA binding domain, and with the plasmid isolated during the screening of the two-hybrid library. […]

B1: central region of parkin (amino acids 135-290) fused to the LexA bacterial repressor, from vector pLex9-parkin (135-290) (other)
chain: GSPAGRSIYNSFYVYCKGPCQRVQPGKLRVQCSTCRQATLTLTQGPSCWDDVLIPNRMSGECQSPHCPGTSAEFFFKCGAHPTSDKETSVALHLIATNSRNITCITCTDVRSPVLVFQCNSRHVICLDCFHLYCVTRLNDRQFVHDPQLGYSLPCV
notes: also called central portion of parkin; not shown: LexA bacterial repressor as encoded by vector pLex9 (pBTM116)
B1: binds.
